B1: LINE1-full (parent)
chain: UACGUAGGUGGUUUUCCCCUGAUAGUGCUAAGGGGGCCUGGAAGUUUGGACUGGGCAGAGCUCAACACAGCGUGGCAAAGUGGCUGUGGCUAGACUGCCUCUCUGGAUUCCUCGUCACUCAGCAGGGCAUCUCUGAGAGAAAUGCC

Variants of: B1
Assay: self-cleavage, relative activity (ratio to wild type); higher = more cleavage; in vitro, sequencing; the parent is a self-cleaving ribozyme

| Variant | self-cleavage |
| --- | --- |
| CACGUAGGUGGUUUUCCCCUGAUAGUGCUAUGGGGGCCUGGAAGUUUGGACUGGGCAGAGCUCAACACAGCGUGGCAAAGUGGCUGUGGCUAGACUGCCUCUCUGGAUUCCUCGUCACUCAGCAGGGCAUCUCUGAGAGAAAUGCC [U1C A31U] | 0.61 |
| UACGUAGGUGGUUCUCCCCUGAUAGUGCUAAGGGGGCCUGUAAGUUUGGACUGGGCAGAGCUCAACACAGCGUGGCAAAGUGGCUGUGGCUAGACUGCCUCUCUGGAUUCCUCGUCACUCAGCAGGGCAUCUCUGAGAGAAAUGCC [U14C G41U] | 0.71 |
| UACGUAGGUGGUUUUCCCCUGAUAGUGCUAAGGGGGCCUGGAAGUUUGGACUGGGCAGAGCUCAACACAGCGUGGCAAAGUGGCUGUGGCUAGAUUGCCUCUCUGGAUUCCUCGUCACUCAGCAGGGCAUCUCUGAGUGAAAUGCC [C95U A138U] | 0.2 |
| UACGUAGGUGGUUUUCCCCUGAUAGUGCUAGGGGGGCCUGGAAGUUUGGACUGGGCAGAGCUCAACACAGCGUGGCAAAGUGGCUGUGGCUAGACUGCCUCUCUGGAUUCCUCGUCACUCAGCAGGGCAUCUCUGAGAGAGAUGCC [A31G A141G] | 1.1 |
| UACGUAGGUGGUUUUCCCCUGAUAGUGCUAAGGGGGCCUGGAAGUUUGGACUGGGCAGAGCUCAACACAGCGUGGCAAAGUGGCUGUGGCUAGACUGCCUCUCUGGAUUCCUCGUCACUCAGCAGGUCAUCUCUGAGAGAGAUGCC [G127U A141G] | 1.45 |
| UACGUAGGUGGUUUUCCCCUGAUAGUGCUAAGGGGGCCUGGAAGUUUGGACUGGGCAGAGUUCAACACAGCGUGGCAAAGUGGCUGUGGCUAGACCGCCUCUCUGGAUUCCUCGUCACUCAGCAGGGCAUCUCUGAGAGAAAUGCC [C61U U96C] | 0.03 |
| UACGUAGGUGGUUUCCCCCUGAUAGUGCUAAGGGGGCCUGGAAGUUUGGACUGGGCAGAGCUCAACACAGCGUGGCAAAGUGGCUGUGGCUAGACUGCCUCUCUGGAUUCCUCGUCACUCAGCAUGGCAUCUCUGAGAGAAAUGCC [U15C G125U] | 0.82 |
| UACGUAGGUGGCUUUCCCCUGAUAGUGCUAAGGGGGCCUGGAAGUUUGGACUGGGCAGAGCUCAACACAGCGUGGCAAAGUGGCUGUGGCUAGACUGCCUCUCUGGAUUCCUCGUCACUCAGCAGGGCAUCUCUGGGAGAAAUGCC [U12C A136G] | 1.41 |
| UACGUAGGUGGUUUUCCCCUGAUAGUGCUAAGGGGGCCUGGAAGUUUAGACUGGGCAGAGCUCAACACAGCGUGGCAAAGUGGCUGUGGCUAUACUGCCUCUCUGGAUUCCUCGUCACUCAGCAGGGCAUCUCUGAGAGAAAUGCC [G48A G93U] | 0.03 |
| UACGUAGGUGGUUUUCCCCUGAUAGUGCUAAGGGGGCCUGGAAGUUUGGACUGGGCAGAGCUCAACACAGCGUGGCAAAGUGGCUGUGGCUAGACUGCCUCUCUGGAUUCCUCGUCACUCAUCAGGGCACCUCUGAGAGAAAUGCC [G122U U130C] | 1.21 |
| UACGUAGGUGGUUUUCCCCUGAUAGUGCUAAGGGGGCCCGGAAGUUUGGACUGGGCAGAGCUCAACACAGCGUGGCAAAGUGGCUGUGGCUAGACUGCCUCUCUGGAUUCCUCGUCACUCAGCAGGGCAUCUCCGAGAGAAAUGCC [U39C U134C] | 1.5 |
| UACGUAGGUGGUUUUCCCCUGAUAGCGCUAAGGGGGCCUGGAAGUUUGGACUGGGCAGAGCUCAACACAGCGUGGCAAAGUGGCUGUGGCUAGACUGCCUCUCUGGAUUCCUCGUCACUCAGCAGGGCAUCUCUGAGAGAAAUGCC [U26C] | 1.24 |
| UACGUAGGUGGUUUUCCCCUGAUAGUGCUAAGGGGGCCUGGAAGUUUGGACUGGGCAGAGCUCAACACAGCGAGGCAAAGUGGCUGUGGCUAGACUGCCUCUCUGGAUUCCUCGUCCCUCAGCAGGGCAUCUCUGAGAGAAAUGCC [U73A A117C] | 1.99 |
| UACGUAGGUGGUUUUCCCCUGAUAGUGCUAAGGGGGCCUGGAAGUUUGGACUGGGCAGAGCUCAACACAGCGUGGCAGAGUGGCUGUGGCAAGACUGCCUCUCUGGAUUCCUCGUCACUCAGCAGGGCAUCUCUGAGAGAAAUGCC [A78G U91A] | 0.38 |
| UACGUAGGUGGUUUUCCCCUGAUAGUGCUAAGGGGGCCUGGAAGUUUGGACUGGGCAGAGCUCAACACAGCGUGGCAAAGUGGCUGUGGCUAGGCUGCCUCUCUGGAUUCCUCGUCACUCAGCAGGGCAUCUCAGAGAGAAAUGCC [A94G U134A] | 0.21 |
| UACGUAGGUGGUUUUCCCCUGACAGUGCUAAGGGGGCCUGGAAGUUUGGACUGGGCAGAGCUCAACACAGCGAGGCAAAGUGGCUGUGGCUAGACUGCCUCUCUGGAUUCCUCGUCACUCAGCAGGGCAUCUCUGAGAGAAAUGCC [U23C U73A] | 1.28 |
| UACGUAGGUGGUUUUCCCCUGAUAGUGCUAAGGGGGCCUGGAAGUAUGGACUGGGCAGAGCUCAACACAGCGUGGCAAAGUGGCUGUGGCUAGACUGCCUCUCUGGACUCCUCGUCACUCAGCAGGGCAUCUCUGAGAGAAAUGCC [U46A U108C] | 1.37 |
| UACGUAGGUGGUUUUCCCCUGAUAGUGCUAAGCGGGCCUGGAAGUUUGGACUGGGCAGAGCUCAACACAGCGUGGCAAAGUGGCUGUGGCUAGACUGCCUCUCUGGAUUCCUCGUCACUCAGCAGGGCAUCUCUGAGAGAACUGCC [G33C A142C] | 1.28 |
| UACGUAGGUGGUUUUCCCCUGAUAGUGCUAAGGGGGCCUGGAUGUUUGGACUGGGCAGAGCUCAACACAGCGUGGCAAAGUGGCUGUGGCUAGACUGCCUCUCUGGAUUCCUCGUCACUCAGCAGGGCAACUCUGAGAGAAAUGCC [A43U U130A] | 1.67 |
| UACGUAGGUGGUUAUCCCCUGAUAGUGCUAAGGGGGCCUGGAAGUAUGGACUGGGCAGAGCUCAACACAGCGUGGCAAAGUGGCUGUGGCUAGACUGCCUCUCUGGAUUCCUCGUCACUCAGCAGGGCAUCUCUGAGAGAAAUGCC [U14A U46A] | 0.86 |

| Variant | self-cleavage |
| --- | --- |
| UACGUAGGUGGUUUUCCCCUGAUAGUGCUAAGGGGGCCUGGAAGUUUGGACUGGGCAGAGCUCAACACAGCGUGGCAAAGUGGCUGUGGCCAGACUGCCUCUCUGGAUUCCUCGACACUCAGCAGGGCAUCUCUGAGAGAAAUGCC [U91C U115A] | 0.56 |
| UACGUAGGUGGUUUUCCCUUGAUAGUGCUAAGGGGGCCUGGAGGUUUGGACUGGGCAGAGCUCAACACAGCGUGGCAAAGUGGCUGUGGCUAGACUGCCUCUCUGGAUUCCUCGUCACUCAGCAGGGCAUCUCUGAGAGAAAUGCC [C19U A43G] | 0.62 |
| UACGUAGGUGGUUUUCCCCUGAUAGUGCUAAGGGGGCCUGGAAGUUUGGGCUGGGCAGAGCUCAACACAGCGUGGCAAAGUGGCUGUGGCUAGACUGCCUCUCUGGAUUCCUCGUCACUCAGUAGGGCAUCUCUGAGAGAAAUGCC [A50G C123U] | 0.43 |
| UACGUAGGUGGUUUUCCCCUGAUAGUGCUGAGGGGGCCUGGAAGUUUGGACUGGGCAGAGCUCAACACAGCGUGGCAAAGUGGCUGUGGCUAGACUGCCUCUCUGGACUCCUCGUCACUCAGCAGGGCAUCUCUGAGAGAAAUGCC [A30G U108C] | 0.5 |
| UACGUGGGUGGUUUCCCCCUGAUAGUGCUAAGGGGGCCUGGAAGUUUGGACUGGGCAGAGCUCAACACAGCGUGGCAAAGUGGCUGUGGCUAGACUGCCUCUCUGGAUUCCUCGUCACUCAGCAGGGCAUCUCUGAGAGAAAUGCC [A6G U15C] | 0.84 |
| UACGUAGGUGGUUUUCCCCUGAUAUUGCUAAGGGGGCCUGGAAGUUUGGACUGGGCAGAGCUCAACACAGCGUGGCAGAGUGGCUGUGGCUAGACUGCCUCUCUGGAUUCCUCGUCACUCAGCAGGGCAUCUCUGAGAGAAAUGCC [G25U A78G] | 0.96 |
| UACGUAGGUGGUUUUCCCCAGAUAGUGCUAAGGGGGCCUGGAAGUUUGGACUGGGCAGAGCUCAACACAGCGUGGCAAAGUGGCUGUGGCUAGACUGCCUCUCUGGAUUCCUCGUCACUCAGCAGGGCAUCUCCGAGAGAAAUGCC [U20A U134C] | 1.32 |
| UACGUAGGCGGUUUUCCCCUGAUAGUGCUAAGGGGGCCUGGAAGUUUGGACUGGGCAGAGCUCAACACAGCGUGGCAAAGUGGCUGUGGCUAGACUGCCUCUCUGGUUUCCUCGUCACUCAGCAGGGCAUCUCUGAGAGAAAUGCC [U9C A107U] | 1.59 |
| UACGUAGGUGGUUUUCCCCUGAUAGUGCUAAGGGGGCCUGGAAGUUUGGACUGGGCAGAGCUCAACACAGCGCGGCAAAGUGGCUGUGGCUAGACUGCCUCUCUGGAUUCCUCGUCACUCAGCAGGACAUCUCUGAGAGAAAUGCC [U73C G127A] | 1.7 |
| UACGUAGGUGGUUUUCCCCUGAUAGUGCUAAGGGGGCCUGGAAGUUUGGGCUGGGCAGAGCUCAACACAGCGUGGCAAAGUGGCUGUGGCUAGACUGCCUCUCUGGAUUCCUCGUCACUCUGCAGGGCAUCUCUGAGAGAAAUGCC [A50G A121U] | 0.48 |
| UACGUAGGUGGUUUUCCCCUGAUAGUGCUAAGGGGGCCUGGAAGUUUGGACUGUGCAGAGCUCAGCACAGCGUGGCAAAGUGGCUGUGGCUAGACUGCCUCUCUGGAUUCCUCGUCACUCAGCAGGGCAUCUCUGAGAGAAAUGCC [G54U A65G] | 0.03 |
| UACGUAGGUGGUUUUCCCCUGAUAGUGCUAAGGGGGCCUGGAAGCUUGGACUGGGCAGAGCUCAUCACAGCGUGGCAAAGUGGCUGUGGCUAGACUGCCUCUCUGGAUUCCUCGUCACUCAGCAGGGCAUCUCUGAGAGAAAUGCC [U45C A65U] | 0.22 |
| UACGUAGGUGGUUUUCCCCUGAUAGUGCUAAGGGGGCCUGGAAGUUUGGACUGGGCAGAGCUCAACACUGCGUGGCAAAGUGGCUGUGGCUAGACUGCCUCUCUGGAUUCCUCGUCACUUAGCAGGGCAUCUCUGAGAGAAAUGCC [A69U C120U] | 0.07 |
| UACGUAGGUGGUUUUCCCCUGAUAGUGCUAAGGGGGCCUGGAAGUUUGGACUGGGCAGAGCUCAACACAGCGUGGCAAAGAGGCUGUGGCUAGACUGCCUCUCUGGAUUCCUCGUCACUCAGCAGGGCAUCUCUGUGAGAAAUGCC [U81A A136U] | 2.35 |
| UACGUAGGUGGUUUUCCCCUGAUAGUGCUAAGGGGGCCUGGAAGUUUGGACUGGGCAGAGCUCAACACAGCGUGGCAAAGUGGCUGUGGCUAGACUGCCUCUCUGGAUUCCUCGUCACUCAGCAGGGCAUCUCGGAGAGAAAUGCC [U134G] | 1.46 |
| UACGUAGGUGAUUUUCCCCUGAUAGUGCUAAGGGGGCCUGGAAGUUUGGACUGGGCAGAGCUCAACACAGCGUGGCUAAGUGGCUGUGGCUAGACUGCCUCUCUGGAUUCCUCGUCACUCAGCAGGGCAUCUCUGAGAGAAAUGCC [G11A A77U] | 1.58 |
| UACGUAGGUGGAUUUCCCCUGAUAGUGCUAAGGGAGCCUGGAAGUUUGGACUGGGCAGAGCUCAACACAGCGUGGCAAAGUGGCUGUGGCUAGACUGCCUCUCUGGAUUCCUCGUCACUCAGCAGGGCAUCUCUGAGAGAAAUGCC [U12A G35A] | 0.98 |
| UACGUAGGUGGUUUUCCCCUGAAAGUGCUAAGGGGGCCUGGAAGUUUGGACUGGGCAGAGCUCAACACAGCGUGGCAAAGUGGCUGAGGCUAGACUGCCUCUCUGGAUUCCUCGUCACUCAGCAGGGCAUCUCUGAGAGAAAUGCC [U23A U87A] | 0.09 |
| UACGUAGGUGGUUUUCCCCUGAUAGUGCUAAGGGGGCCUGGAAGUUUGGACUGGGCAGAGCUCAACACAGCGUGGCAAAGUGGCUGUGGCUAGACUGCCUCUCUGUAUUCCUCGUCACUCAGCAGGGCAUCUCCGAGAGAAAUGCC [G106U U134C] | 0.75 |

Reference: the RNAGym collection of RNA variant scans (doi:10.7554/elife.90254)
